Experimental data taken from US6468985B1, “Retinoblastoma protein-interacting zinc finger proteins” (The Burnham Institute, priority 1994, dated 2002).

Tests used:
[1] = test system: Rb having a deletion within the pocket; experiment: binding of GST-RIZ (245-573) to 35S-labeled Rb pocket deletion mutants, immunoprecipitation with anti-RIZ antiserum
Protocol: The 56 kD Rb fragment that binds to RIZ is a C-terminal fragment containing the Rb pocket binding region and a C-terminal extension. To further define the portion of 56 kD Rb that binds to RIZ, several Rb mutant polypeptides were tested for binding to RIZ. Mutant and full length Rb were cloned and in vitro transcribed/translated as described previously (Huang et al., supra, 1990). H209 is a point mutation resulting in a single amino acid change in Rb that was identified in the small cell lung cancer H209 cell line (American Type Culture Collection (ATCC) #HTB 172). The various Rb forms were tested for binding to glutathionine S-transferase (GST) fused to a fragment of RIZ from amino acid position 245-573 (GST-RIZ (245-573)). This RIZ fragment contains all of the E1A motifs related to binding Rb and was constructed by cloning a Stu I-Hpa I RIZ fragment (nucleotide 795-3068) into vector pBSK+ to make pBSK+SH. An Eco RI fragment was removed from pBSK+SH and ligated into pGEX-KG to produce vector pKG7.1S containing GST-RIZ (245-573).
The binding between purified GST-RIZ (245-573) and the above radiolabeled Rb wild-type and deletion mutants was determined by immunoprecipitation with an anti-RIZ antiserum followed by SDS-PAGE and autoradiography. […]

RIZ = molecular target: T1, RIZ (Rattus norvegicus, UniProt Q63755); experiment: binding of anti-RIZ antiserum / anti-ce1 antibody to RIZ and RIZ truncation mutants; conditions: addition of the immunogen
T1 construct: made in house; host or cells: in vitro transcription/translation (rabbit reticulocyte lysate)
T1 sequence (Q63755 245-883): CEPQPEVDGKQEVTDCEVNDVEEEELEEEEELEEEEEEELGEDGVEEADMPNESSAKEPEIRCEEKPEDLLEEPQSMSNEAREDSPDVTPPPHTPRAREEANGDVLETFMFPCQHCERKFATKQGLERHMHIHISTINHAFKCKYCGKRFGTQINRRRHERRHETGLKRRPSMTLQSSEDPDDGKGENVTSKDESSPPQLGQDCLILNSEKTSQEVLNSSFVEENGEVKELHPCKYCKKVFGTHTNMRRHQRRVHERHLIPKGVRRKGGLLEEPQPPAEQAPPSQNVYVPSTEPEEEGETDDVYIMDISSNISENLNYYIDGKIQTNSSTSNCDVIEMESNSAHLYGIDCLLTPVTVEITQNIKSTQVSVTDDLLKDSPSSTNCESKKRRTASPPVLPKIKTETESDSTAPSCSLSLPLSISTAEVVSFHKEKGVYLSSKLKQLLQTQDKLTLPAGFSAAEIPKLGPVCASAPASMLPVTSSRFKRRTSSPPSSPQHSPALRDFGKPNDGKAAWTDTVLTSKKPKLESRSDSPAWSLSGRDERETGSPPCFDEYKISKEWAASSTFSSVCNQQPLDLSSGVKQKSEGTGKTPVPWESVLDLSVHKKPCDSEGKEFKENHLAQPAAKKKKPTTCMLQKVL
Protocol: Anti-RIZ antibodies purified from the E1A affinity column were tested for binding to RIZ and E1A. […] The E1A-affinity purified RIZ antibodies were designated “anti-ce1” for cross reacting E1A antigen.
Anti-ce1 antibodies were tested for binding to various deletion mutants of RIZ and E1A 12S in order to map the location of the ce1 epitope on each molecule.
To evaluate this possibility, an 11 amino acid peptide encompassing residues 310-320 in RIZ (ce1 peptide) [sequence] (SEQ ID NO: 7) and an overlapping 11 amino acid control peptide encompassing residues 304-314 containing the cr2 core motif of RIZ, peptide [sequence] (SEQ ID NO: 6), were synthesized by solid phase peptide synthesis and tested for their ability to block binding between anti-ce1 antibody and RIZ or E1A.

rat ovary genomic DNA = experiment: filter-based DNA-binding assay
Source text: To evaluate whether the zinc finger domains of RIZ can bind to DNA, the RIZ finger motifs 1 to 3 from amino acid position 245-573 or finger 4 to 6 from amino acid position 1114-1260 were expressed as GST fusion proteins, GSTZ13 and GSTZ46, respectively. The GST-RIZ fragments were purified by glutathionine agarose chromatography (Guan and Dixon, Anal. Biochem. 192:262-267 (1991), which is incorporated herein by reference) and evaluated for binding in a filter-based DNA-binding assay (Sukegawa and Blobel, Cell 72:29-38 (1993), which is incorporated herein by reference). To obtain GSTZ46, a fragment encoding RIZ (1114-1260) was made by PCR using primers 5′-GTGGTCCAAG AAACATTC-3′ (SEQ ID NO: 17) and 5′-TCGTGTAAAG CTCTTCAG-3′ (SEQ ID NO: 18) and pCMVRIZ as template. The PCR fragment was cloned into pBKS+, then into pGEX-KG (Guan and Dixon, supra, 1991).
The filter-based DNA binding assay was performed by electrophoresing 0.5 μg of purified GST or GST-RIZ fusion proteins by SDS-PAGE and transferring the proteins to nitrocellulose. The proteins were renatured by incubating the nitrocellulose for 3 hr in binding buffer (50 mM Tris-HCl, pH 8, 100 mM KCl, 0.1% Triton X-100™, 10% glycerol, and 0.1 mM ZnCl2). ^32P-labeled, randomly sheared rat ovary genomic DNA was added to the buffer and the nitrocellulose was incubated for an additional 3 hr. […]

binding to three forms of Rb having a deletion within the pocket [1]: failed to bind | inhibition of anti-RIZ antiserum binding to RIZ (245-883) (RIZ): inhibited | binding to 32P-labeled rat DNA (rat ovary genomic DNA; 0.5 μg protein, binding buffer with 0.1 mM ZnCl2): bound | zinc dependence of DNA binding (rat ovary genomic DNA; with ZnCl2 versus 10 mM EDTA, 2 mM DTT and no ZnCl2): Zn^++ ion dependent manner
B1: GST-RIZ (245-573): glutathionine S-transferase fused to RIZ fragment a.a. 245-573 containing zinc fingers 1-3 (protein)
chain: CEPQPEVDGKQEVTDCEVNDVEEEELEEEEELEEEEEEELGEDGVEEADMPNESSAKEPEIRCEEKPEDLLEEPQSMSNEAREDSPDVTPPPHTPRAREEANGDVLETFMFPCQHCERKFATKQGLERHMHIHISTINHAFKCKYCGKRFGTQINRRRHERRHETGLKRRPSMTLQSSEDPDDGKGENVTSKDESSPPQLGQDCLILNSEKTSQEVLNSSFVEENGEVKELHPCKYCKKVFGTHTNMRRHQRRVHERHLIPKGVRRKGGLLEEPQPPAEQAPPSQNVYVPSTEPEEEGETDDVYIMDISSNISENLNYYIDGKIQTNSS
modifications: left off: a dimerising Fc or GST
